# Tests used:
# Assay in all cases: cell-based or functional assay
# [1] = target: IL-18 polypeptide C146 (SEQ ID NO: 68; V11I, C38A, M51G, K53A, C76A, C127A) (human) (UniProt Q14116)
# [2] = target: IL-18 polypeptide C148 (F2A, V11I, C38A, K53A, C76A, C127A) (human) (UniProt Q14116)
# [3] = target: IL-18 polypeptide C150 (V11I, T34A, C38A, K53A, C76A, C127A) (human) (UniProt Q14116)
# [4] = target: IL-18 polypeptide C152 (V11I, S36A, C38A, K53A, C76A, C127A) (human) (UniProt Q14116)
# [5] = target: IL-18 polypeptide C153 (V11I, D37A, C38A, K53A, C76A, C127A) (human) (UniProt Q14116)
# [6] = target: IL-18 polypeptide C156 (V11I, C38A, N41A, K53A, C76A, C127A) (human) (UniProt Q14116)
# [7] = target: IL-18 polypeptide C157 (V11I, C38A, K53A, C76A, C127A, D132A) (human) (UniProt Q14116)
# [8] = target: IL-18 polypeptide C158 (V11I, C38A, K53A, C76A, G108A, C127A) (human) (UniProt Q14116)
# [9] = target: IL-18 polypeptide C159 (V11I, C38A, K53A, C76A, H109A, C127A) (human) (UniProt Q14116)
# [10] = target: IL-18 polypeptide C160 (V11I, C38A, K53A, C76A, D110A, C127A) (human) (UniProt Q14116)
# [11] = target: IL-18 polypeptide C161 (K8R, V11I, C38A, C76A, Q103E, C127A) (human) (UniProt Q14116)
# [12] = target: IL-18 polypeptide C162 (K8E, V11I, C38A, C76A, Q103R, C127A) (human) (UniProt Q14116)
# [13] = target: IL-18 polypeptide C164 (V11I, C38A, S55H, C76A, C127A) (human) (UniProt Q14116)
# [14] = target: IL-18 polypeptide C165 (V11I, C38A, S55R, C76A, C127A) (human) (UniProt Q14116)
# [15] = target: IL-18 polypeptide C166 (V11I, C38A, S55T, C76A, C127A) (human) (UniProt Q14116)
# [16] = target: IL-18 polypeptide C168 (V11I, C38A, C76A, S105K, C127A) (human) (UniProt Q14116)
# [17] = target: IL-18 polypeptide of SEQ ID NO: 35 (Y01G, F02A, E06K, M51G, K53A, D54A, S55A, T63A) (human) (UniProt Q14116)
# [18] = target: IL-18 polypeptide of SEQ ID NO: 39 (E06K, K53A) (human) (UniProt Q14116)
# [19] = target: IL-18 polypeptide of SEQ ID NO: 4 (E6K, C38A, K53A, C68A, M86C) (human) (UniProt Q14116)
# [20] = target: IL-18 polypeptide of SEQ ID NO: 41 (K53A, S55A) (human) (UniProt Q14116)
# [21] = target: IL-18 polypeptide of SEQ ID NO: 42 (E06K, K53A, S55A, T63A) (human) (UniProt Q14116)
# [22] = target: IL-18 polypeptide of SEQ ID NO: 43 (E06K, K53A, S55A, Y01G) (human) (UniProt Q14116)
# [23] = target: IL-18 polypeptide of SEQ ID NO: 47 (C38S, C68S, C76S, C127S) (human) (UniProt Q14116)
# [24] = target: IL-18 polypeptide of SEQ ID NO: 5 (E6K, V11I, C38A, K53A, T63A, C68A, C76A, M86C, C127A) (human) (UniProt Q14116)
# [25] = target: IL-18 polypeptide of SEQ ID NO: 51 (T63A) (human) (UniProt Q14116)
# [26] = target: IL-18 polypeptide of SEQ ID NO: 52 (E06K, T63A) (human) (UniProt Q14116)
# [27] = target: IL-18 polypeptide of SEQ ID NO: 54 (E06K, K53A, C38S, C68S, C76S, C127S, K70C) (human) (UniProt Q14116)
# [28] = target: IL-18 polypeptide of SEQ ID NO: 57 (E6K, C38S, K53A) (human) (UniProt Q14116)
# [29] = target: IL-18 polypeptide of SEQ ID NO: 59 (E6K, C38A, K53A) (human) (UniProt Q14116)
# [30] = target: IL-18 polypeptide of SEQ ID NO: 6 (E6K, V11I, C38A, K53A, T63A, C68A, C76A, D98C, C127A) (human) (UniProt Q14116)
# [31] = target: IL-18 polypeptide of SEQ ID NO: 62 (E6K, C38A, K53A, C127A) (human) (UniProt Q14116)
# [32] = target: native IL-18 wild-type (SEQ ID NO: 1) (human) (UniProt Q14116)
substance,measurement,setting,value
"Fc fused human IL-18 binding protein isoform a (IL-18BPa; R&D systems, Cat #119-BP) (from UniProt O95998 31-194) (Fc fusion)",IC50 of inhibition by IL-18BP of IFNγ stimulation in NK92 cells,[1],733 nM
same,IC50 of inhibition by IL-18BP of IFNγ stimulation in NK92 cells,[2],5.05 nM
same,IC50 of inhibition by IL-18BP of IFNγ stimulation in NK92 cells,[3],21.3 nM
same,IC50 of inhibition by IL-18BP of IFNγ stimulation in NK92 cells,[4],7.85 nM
same,IC50 of inhibition by IL-18BP of IFNγ stimulation in NK92 cells,[5],2.22 nM
same,IC50 of inhibition by IL-18BP of IFNγ stimulation in NK92 cells,[6],0.681 nM
same,IC50 of inhibition by IL-18BP of IFNγ stimulation in NK92 cells,[7],6.08 nM
same,IC50 of inhibition by IL-18BP of IFNγ stimulation in NK92 cells,[8],3.98 nM
same,IC50 of inhibition by IL-18BP of IFNγ stimulation in NK92 cells,[9],1.81 nM
same,IC50 of inhibition by IL-18BP of IFNγ stimulation in NK92 cells,[10],3.18 nM
same,IC50 of inhibition by IL-18BP of IFNγ stimulation in NK92 cells,[11],1.07 nM
same,IC50 of inhibition by IL-18BP of IFNγ stimulation in NK92 cells,[12],7.29 nM
same,IC50 of inhibition by IL-18BP of IFNγ stimulation in NK92 cells,[13],0.456 nM
same,IC50 of inhibition by IL-18BP of IFNγ stimulation in NK92 cells,[14],0.885 nM
same,IC50 of inhibition by IL-18BP of IFNγ stimulation in NK92 cells,[15],0.44 nM
same,IC50 of inhibition by IL-18BP of IFNγ stimulation in NK92 cells,[16],0.176 nM
same,IC50 of inhibition by IL-18BP of IFNγ stimulation in NK92 cells,[17],> 55 nM
same,IC50 of inhibition by IL-18BP of IFNγ stimulation in NK92 cells,[18],> 703 nM
same,IC50 of inhibition by IL-18BP of IFNγ stimulation in NK92 cells,[19],396 nM
same,IC50 of inhibition by IL-18BP of IFNγ stimulation in NK92 cells,[20],37.3 nM
same,IC50 of inhibition by IL-18BP of IFNγ stimulation in NK92 cells,[21],1060 nM
same,IC50 of inhibition by IL-18BP of IFNγ stimulation in NK92 cells,[22],27.8 nM
same,IC50 of inhibition by IL-18BP of IFNγ stimulation in NK92 cells,[23],0.444 nM
same,IC50 of inhibition by IL-18BP of IFNγ stimulation in NK92 cells,[24],62.4 nM
same,IC50 of inhibition by IL-18BP of IFNγ stimulation in NK92 cells,[25],0.239 nM
same,IC50 of inhibition by IL-18BP of IFNγ stimulation in NK92 cells,[26],47.1 nM
same,IC50 of inhibition by IL-18BP of IFNγ stimulation in NK92 cells,[27],23.5 nM
same,IC50 of inhibition by IL-18BP of IFNγ stimulation in NK92 cells,[28],146 nM
same,IC50 of inhibition by IL-18BP of IFNγ stimulation in NK92 cells,[29],654 nM
same,IC50 of inhibition by IL-18BP of IFNγ stimulation in NK92 cells,[30],5.85 nM
same,IC50 of inhibition by IL-18BP of IFNγ stimulation in NK92 cells,[31],284 nM
same,IC50 of IL-18BP-mediated inhibition of IFNγ secretion by NK92 cells,[32],0.781 nM
same,IC50 of inhibition by IL-18BP of IFNγ stimulation in NK92 cells,[32],1.47 nM

# — patent US20250186597A1, “TARGETED IMMUNE ACTIVATION WITH IL-18 IMMUNOCYTOKINES” (BRIGHT PEAK THERAPEUTICS AG, priority 2023, published 2025)
